These results are taken from publication doi:10.1101/2022.10.18.512811 (bioRxiv, 2022).

The target of series [1] is His-tagged NlpE N-terminal domain (E. coli). Briefly: cross-linking.
Series [2] concerns the molecule itself. Briefly: dimer band on denaturing SDS-PAGE.
Series [3] deals with the molecule itself. The series is described as follows: dimer band on denaturing SDS-PAGE. This is another data set of the same source.

Like-named read-outs stand apart in the source and are kept apart here.

Broadly, the stoichiometry N is the number of molecules, sites or subunits per partner or assembly.

On to “His-tagged NlpE N-terminal domain (domain or fragment)”, for which the stoichiometry N in series [1] amounted to 2.

B1: C-terminally His-tagged WT NlpE expressed from pTrc99A (natural protein, E. coli, UniProt P40710 21-236, looked up)
chain: CNNRAEVDTLSPAQAAELKPMPQSWRGVLPCADCEGIETSLFLEKDGTWVMNERYLGAREEPSSFASYGTWARTADKLVLTDSKGEKSYYRAKGDALEMLDREGNPIESQFNYTLEAAQSSLPMTPMTLRGMYFYMADAATFTDCATGKRFMVANNAELERSYLAARGHSEKPVLLSVEGHFTLEGNPDTGAPTKVLAPDTAGKFYPNQDCSSLGQ
modifications: lipid-modified N-terminal cysteine (Cys21)
Consider B1, for which, in series [2], the “stoichiometry N” value came out at 2.

B2: purified, soluble, C-terminal His×6-tagged NlpE (natural protein, E. coli, UniProt P40710 21-236, looked up)
chain: B1 chain
In the case of B2, the “stoichiometry N” value in series [3] came out at 2.
